Holding throughout (format): cell-based
For test [1], the system named is RSMC. Nature of the test: Chemotaxis assay, modified Boyden chambers, RSMC. As for the experimental part: Chemotaxis assays were performed using well-known protocols (Degryse et al., 1999, Blood, 94: 649-662).
Modified Boyden chambers were used with filters having 0.5 Am pore size (Corning, Acton, Mass.) and. treated with collagen I (100 Ug/ml in 0.5 M acetic acid) e fibronectin (10 IIg/ml) (Roche). RSMC cells (kind gift of Dr. Marco Bertulli, Bayer Research Laboratories, Milan) were cultured in DMEM serum-free and a sample of 20.000-40.000 cells was added to the upper well of Boyden. chamber. The molecules to be tested were diluted in the same serum-free medium and added to the lower well.
Different HMGB1 preparations were used: HMGB1 purified from calf thymus (kind gift of J. Bernues, C.S.I.C., Barcelona, Spain), E. coli expressed […], and a lightly modified HMGB1 form (containing EAEAYVEF aminoacids bound to the Nterminus) produced in yeast Pichia pastoris (Mistry et al., 1997, Biotechniques, 22: 718-729).
If necessary, the polyclonal rabbit anti-HMGB1 (Pharmingen B D, Torrey Pines, Calif.), the pertussis toxin (PT) from Bordetella pertussis (kind gift of Dr. M. G. Pizza, I.R.I.S., Siena) or the inhibitors were added in both wells.
Overnight cell migration was allowed at 37 C, then cells remaining on the upper surface of filters were scraped off and filters were fixed in methanol and stained in a solution of 10% crystal violet in 20% methanol. All experiments were performed at least twice in triplicate.
Results, as shown in FIGS. 1-A, 1-B, 1-C, 1-D, are the mean±SD of the number of cells counted in 10 high power fields per filter and expressed as fold over control. To random cell migration (i.e., migration in the absence of chemoattractant) was given the arbitrary value of 100%.
Statistical analysis was performed using Student's t test for pairwise comparisons of treatments, or an ANOVA model for the evaluation of treatments with increasing doses of a reagent.
Knowing that many chemoattractants act via membrane receptors associated to heterotrimeric GTP binding proteins (G proteins), whether G proteins could be implicated in HMGB1 signaling was tested. […] RSMC were pre-treated with PT or with mPT (50 ng/ml) for 6 hours, thus stimulated with HMGB1 (100 ng/ml), Box A or Box B (10 ng/ml) for 30 minutes.
Chemotaxis assays were performed as previously described. The data represent the mean±SD and the value of 100% corresponds to basal migration in the absence of any stimulator.

Test [2] concerns RSMC. The test can be described thus: Immunofluorescence assay of RSMC morphology and actin cytoskeleton organization. The method, then: Samples of 15.000-20.000 RSMC, 20-40% confluence, 2 were seeded on glass coverslips in 2 cm wells and cultured for 24 hours in DMEM plus 10% FCS, washed with PBS, and cultured for another 24 hours in DMEM without FCS. RSMC were stimulated with HMGB1 100 ng/ml for increasing time intervals, from 5 to 120 minutes at 37 C. After stimulation, RSMC were fixed for 20 minutes at room temperature with a solution of 3% paraformaldehyde, 2% sucrose in PBS, pH 7.5, followed by three washes with PBS-BSA 0.2%. Cells were permeabilized with 20 mM Hepes pH 7.4, 300 mM saccharose, 50 mM NaCl, 3 mM MgCl2, 0.5% (v/v) Triton X-100 for 3 minutes at 4 C, and washed again three times with PBS-BSA 0.2%. Then, RSMC were incubated with PBS-BSA 2% for. 15 minutes at 37 C, with primary antibodies for 30 minutes at 37 C, washed three times with PBS-BSA 0.2%, and further incubated with PBS-BSA 2% for 15 minutes. At the end, cells were stained with secondary antibodies and/or phalloidin conjugated with rodamin for visualization of filamentous actin; in some cases, DAPI (4′,6-diamidino-2-phenilindolo, Roche) was used to label the nucleus.
After all the subsequent incubation, coverslips were washed three times with PBS-BSA 0.2%, twice with distilled water, mounted with 20% Mowiol in PBS and analysed on a Axiophot microscope (Carl Zeiss).
Fluorescence photographs were taken either on T-Max 400 or EPH P1600X film (Eastman Kodak) using Zeiss 40 and 100 neofluar lenses.
In certain experiments cells were overnight pretreated with antibodies or PT or inhibitors.
Finally, to determine whether the observed effects of HMGB1 on RSMC actually reflect a dynamic transition from resting to motile states, the proportion of cells in each different state was quantified.

Another test concerns phosphorylated ERK1/2. Nature of the test: ERK1/2 phosphorylation and nuclear translocation in RSMC (immunostaining). On the set-up: inhibition of HMGB1-induced ERK phosphorylation and nuclear translocation: dose or concentration left out as unconfirmed. The method, then:
Afterwards, whether the HMGB1-induced signaling involves the MAP kinase pathway, was investigated; in fact, it is known that these proteins are activated by RAGE, and they have a direct role in the regulation of the intracellular motility machinery. RSMC were pretreated with PD98059 ([…]) for one hour or were not pre-treated, stimulated for 30 minutes with HMGB1 from calf thymus (100 ng/ml) and stained with specific antibodies against phosphorylated ERK1/2 (New England Biolabs, Beverly, Mass.) and DAPI. A separate sample of cells was stained with TRITC-phalloidin to visualize the reorganization of cytoskeleton. […] Moreover, PD98059, the selective inhibitor of MEK, the upstream regulator of ERK, inhibits HMGB1-induced ERK phosphorylation and. nuclear translocation, as well as RSMC migration and cytoskeleton reorganization.

Test [3] relates to Mouse embryonic fibroblasts. The test can be described thus: Chemotaxis assay on fibroblasts, modified Boyden chambers. The method, then:
Chemotaxis assays were performed using well-know protocols (Degryse et al., 1999, Blood, 94:64. 9-662). Modified Boyden chambers were used with filters having 0.5 ym pore size (Corning, Acton, Mass.) and treated with collagen I (100 pg/ml in 0.5 M acetic acid) and fibronectin (10 IIg/ml) (Roche). Mouse embryonic fibroblasts were cultured following well-known protocols (Calogero et al., 1999, Nat. Genet., 22: 276280) and after 24 hours of serum starvation, a sample of 20.000-40.000 cells was added to the upper well of Boyden. chamber. E. Coli expressed recombinant-HMGB1 was diluted in the same serum-free medium and added to the lower well. Anti-RAGE antibodies (1000 ng/ml) (kind gift of Dr. A. M. Schimdt, Columbia University, NY) were added in both wells.
Overnight cell migration. was allowed at 37 C, then cells remaining on the upper surface of filters were scraped off and filters were fixed in methanol and stained in a solution of 10% crystal violet in 20% methanol. All experiments were performed at least twice in triplicate.
Results, as shown in FIG. 10 are the mean W SD of the number of cells counted in 10 high power fields per filter and expressed as fold over untreated control. To random cell migration (i.e. migration in absence of chemoattractant) was given the arbitrary value of 100%.
Statistical analysis was performed using an ANOVA model for the evaluation of treatments with increasing doses of a reagent. […] Anti RAGE antibodies (1000 ng/ml) totally block the migratory response (right side of the graphic of FIG. 10) showing that this is specifically due to HMGB1.

[4] abbreviates: HMGB1 100 ng/ml, one hour after stimulation.

Consider `COc1cccc(-c2cc(=O)c3ccccc3o2)c1N` [PD98059, reference compound], for which the “inhibition of HMGB1-induced RSMC migration” value with RSMC [1] (inhibitor in both wells or pre-treatment, HMGB1 as chemoattractant) is reported as “inhibits”. For the same molecule, the “inhibition of HMGB1-induced cytoskeletal reorganization and morphological change of RSMC” value in the test with RSMC [2] (cells pretreated with antibodies, PT or inhibitors) is “inhibits”. Also, the “inhibition of HMGB1-induced ERK phosphorylation and nuclear translocation” value in the test on phosphorylated ERK1/2 (pretreated with PD98059 for one hour) is “inhibits”.

B1: E. Coli expressed recombinant-HMGB1: full-length HMGB1 expressed in E. Coli transformed with pT7-7-rHMGlcm plasmid (protein, UniProt P09429 1-215, looked up)
chain: MGKGDPKKPRGKMSSYAFFVQTCREEHKKKHPDASVNFSEFSKKCSERWKTMSAKEKGKFEDMAKADKARYEREMKTYIPPKGETKKKFKDPNAPKRPPSAFFLFCSEYRPKIKGEHPGLSIGDVAKKLGEMWNNTAADDKQPYEKKAAKLKEKYEKDIAAYRAKGKPDAAKKGVVKAEKSKKKKEEEEDEEDEEDEEEEEDEEDEDEEEDDDDE
modifications: full-length expressed in E. coli
notes: full-length HMGB1 expressed in E. Coli transformed with pT7-7-rHMGlcm plasmid
Consider B1, for which, in test [3], the “dose giving maximal migratory response of fibroblasts” value turned out to be 100 ng/mL. For the same molecule, the “migratory response of fibroblasts at higher doses” value in test [3] (1000 ng/ml) is on record as “lower than the control”. Also, the “lowest dose stimulating fibroblasts migration” value in test [3] (concentration-dependent) came to 0.1 ng/mL.

B2: HMGB1: HMGB1 protein, 25-kD, 215 amino acids, two HMG boxes and acidic COOH terminus; preparation not specified at the place (protein, UniProt P09429 1-215, looked up)
High mobility group protein B1: MGKGDPKKPRGKMSSYAFFVQTCREEHKKKHPDASVNFSEFSKKCSERWKTMSAKEKGKFEDMAKADKARYEREMKTYIPPKGETKKKFKDPNAPKRPPSAFFLFCSEYRPKIKGEHPGLSIGDVAKKLGEMWNNTAADDKQPYEKKAAKLKEKYEKDIAAYRAKGKPDAAKKGVVKAEKSKKKKEEEEDEEDEEDEEEEEDEEDEDEEEDDDDE
With B2, the “chemotactic effect on RSMC (in words)” value in the test with RSMC [1] (overnight migration, serum-free medium) is “comparable in amplitude to the effects of the well characterised attractants fMLP and bFGF”. The “proportion of cells in state 2” value was found to be 80% with RSMC [2] (HMGB1 100 ng/ml, after 15-30 minutes); 40% in the test on RSMC [2] (setting [4]); 60% with RSMC [2] (HMGB1 100 ng/ml, within 5 minutes after stimulation). Moreover, the “proportion of cells in state 1” value in the test on RSMC [2] (setting [4]) was 60%. Also, the “change of RSMC morphology and cytoskeleton organization” value in the test on RSMC [2] (HMGB1 100 ng/ml, within 15-30 minutes) was “complete change of morphology and cytoskeleton organization”. In addition, the “activation and nuclear translocation of ERK1/2 in RSMC” value in the test on phosphorylated ERK1/2 (HMGB1 from calf thymus 100 ng/ml, within 30 minutes) is given as “induces the activation of ERK1/2 proteins”.

B3: HMGB1 from calf thymus: HMGB1 purified from calf thymus (protein, UniProt P10103 2-215, looked up)
High mobility group protein B1: GKGDPKKPRGKMSSYAFFVQTCREEHKKKHPDASVNFSEFSKKCSERWKTMSAKEKGKFEDMAKADKARYEREMKTYIPPKGETKKKFKDPNAPKRPPSAFFLFCSEYRPKIKGEHPGLSIGDVAKKLGEMWNNTAADDKQPYEKKAAKLKEKYEKDIAAYRAKGKPDAAKKGVVKAEKSKKKKEEEEDEEDEEDEEEEEDEEDEEEEEDDDDE
B3: the “maximal migratory response of RSMC” value in the test with RSMC [1] (at 100 ng/ml, random cell migration = 100%) was found to be 2.5 fold. In addition, the “lowest dose stimulating migration of RSMC” value with RSMC [1] (concentration-dependent, overnight migration) was determined as 0.1 ng/mL.

Values taken from patent US20100172896A1, “HMGB1 PROTEIN INHIBITORS AND/OR ANTAGONISTS FOR THE TREATMENT OF VASCULAR DISEASES” (BIO3 RESEARCH SRL, priority 2001, published 2010).
